Experimental data published in patent US20250296971A1, “GASTRIC INHIBITORY PEPTIDE RECEPTOR LIGANDS” (priority 2021, published 2025).
Blank lines part the entries; values can stand above or below the binder they belong to. *1 amine or outer side, *2 acyl side, *3 side chain or, on linkers, in order; H or OH if unused. Bridges are numbered along the chain shown (N, C = ends). Primed or numbered codes have the meaning given here. [ ]: non-standard residue; d: D form. Trp(5-Cl) = N[C@@H](Cc1c[nH]c2ccc(Cl)cc12)C(=O)O; Phe(3,4-Cl2) = N[C@@H](Cc1ccc(Cl)c(Cl)c1)C(=O)O; Pyridine(2,6-diCH2) = c1cc(C[*:1])nc(C[*:2])c1; Phe(2,4-Cl2) = N[C@@H](Cc1ccc(Cl)cc1Cl)C(=O)O; 2Lut″ = 2,6-lutidylidene linking two thiols; Phe(3-Cl) = N[C@@H](Cc1cccc(Cl)c1)C(=O)O; Phe(4-Cl) = N[C@@H](Cc1ccc(Cl)cc1)C(=O)O; Ser(ΨH,HPro) = O=C(O)[C@@H]1COCN1; Hyp = O=C(O)[C@@H]1C[C@@H](O)CN1; NMeE = CN[C@@H](CCC(=O)O)C(=O)O; pS = N[C@@H](COP(=O)(O)O)C(=O)O; Thp = NC1(C(=O)O)CCOCC1

Molecular target: human Gastric Inhibitory Peptide Receptor (GIPR) (human) (UniProt P48546)
Assay: FACS competition vs biotinylated GIP-057 on CHO-K1-hGIPR cells; category A: pIC50 >8.0

B1: Ac-Asp-Eaa-5Clw-Hyp-Glu-leu-[Cys(2Lut)-Thp-Leu-Ile-Cys]-NH2 (peptide)
peptide: Ac-D[Phe(3,4-Cl2)][Trp(5-Cl)][Hyp]E[dL]C[Thp]LIC-NH2
modifications: linker 7-11 via Pyridine(2,6-diCH2)
SMILES: CC[C@H](C)[C@@H]1NC(=O)[C@H](CC(C)C)NC(=O)C2(CCOCC2)NC(=O)[C@@H](NC(=O)[C@@H](CC(C)C)NC(=O)[C@H](CCC(=O)O)NC(=O)[C@@H]2C[C@@H](O)CN2C(=O)[C@H](Cc2c[nH]c3ccc(Cl)cc23)NC(=O)[C@H](Cc2ccc(Cl)c(Cl)c2)NC(=O)[C@H](CC(=O)O)NC(C)=O)CSCc2cccc(n2)CSC[C@@H](C(N)=O)NC1=O
pIC50: > 8 pic50

Binder: Ac-D[Phe(4-Cl)][Trp(5-Cl)][Hyp]E[dL]C[Thp]LIC-NH2 (linker 7-11 via Pyridine(2,6-diCH2)) [Ac-Asp-Pcf-5Clw-Hyp-Glu-leu-[Cys(2Lut)-Thp-Leu-Ile-Cys]-NH2]
pIC50: > 8 pic50

B2: Ac-Asp-Mcf-5Clw-Hyp-Glu-leu-[Cys(2Lut)-Thp-Leu-Ile-Cys]-NH2 (peptide)
peptide: Ac-D[Phe(3-Cl)][Trp(5-Cl)][Hyp]E[dL]C[Thp]LIC-NH2
modifications: linker 7-11 via Pyridine(2,6-diCH2)
SMILES: CC[C@H](C)[C@@H]1NC(=O)[C@H](CC(C)C)NC(=O)C2(CCOCC2)NC(=O)[C@@H](NC(=O)[C@@H](CC(C)C)NC(=O)[C@H](CCC(=O)O)NC(=O)[C@@H]2C[C@@H](O)CN2C(=O)[C@H](Cc2c[nH]c3ccc(Cl)cc23)NC(=O)[C@H](Cc2cccc(Cl)c2)NC(=O)[C@H](CC(=O)O)NC(C)=O)CSCc2cccc(n2)CSC[C@@H](C(N)=O)NC1=O
pIC50: > 8 pic50

Binder: Ac-DW[Trp(5-Cl)][Hyp][pS][dL]C[Thp]LIC-NH2 (linker 7-11 via Pyridine(2,6-diCH2)) [Ac-Asp-Trp-5Clw-Hyp-Pse-leu-[Cys(2Lut)-Thp-Leu-Ile-Cys]-NH2]
pIC50: > 8 pic50

Other lines, results leading:

pIC50: > 8 pic50
Binder: Ac-DW[Trp(5-Cl)][Hyp][NMeE]LC[Thp]LIC-NH2 (linker 7-11 via Pyridine(2,6-diCH2)) [Ac-Asp-Trp-5Clw-Hyp-Nme-Leu-[Cys(2Lut)-Thp-Leu-Ile-Cys]-NH2]

pIC50: > 8 pic50
B3: Ac-Asp-Egm-5Clw-Hyp-Glu-leu-[Cys(2Lut)-Thp-Leu-Ile-Cys]-NH2 (peptide)
peptide: Ac-D[Phe(2,4-Cl2)][Trp(5-Cl)][Hyp]E[dL]C[Thp]LIC-NH2
modifications: linker 7-11 via Pyridine(2,6-diCH2)
SMILES: CC[C@H](C)[C@@H]1NC(=O)[C@H](CC(C)C)NC(=O)C2(CCOCC2)NC(=O)[C@@H](NC(=O)[C@@H](CC(C)C)NC(=O)[C@H](CCC(=O)O)NC(=O)[C@@H]2C[C@@H](O)CN2C(=O)[C@H](Cc2c[nH]c3ccc(Cl)cc23)NC(=O)[C@H](Cc2ccc(Cl)cc2Cl)NC(=O)[C@H](CC(=O)O)NC(C)=O)CSCc2cccc(n2)CSC[C@@H](C(N)=O)NC1=O

pIC50: > 8 pic50
B4: Ac-Asp-Hyw-5Clw-Hyp-Glu-leu-[Cys(2Lut)-Thp-Leu-Ile-Cys]-NH2 (peptide)
peptide: Ac-DX[Trp(5-Cl)][Hyp]E[dL]C[Thp]LIC-NH2
modifications: linker 7-11 via Pyridine(2,6-diCH2); not fully specified (residue 2); printed as Ac-Asp-Hyw-5Clw-Hyp-Glu-leu-[Cys(2Lut)-Thp-Leu-Ile-Cys]-NH2

pIC50: > 8 pic50
Binder: Ac-DW[Trp(5-Cl)][Ser(ΨH,HPro)]E[dL]C[Thp]LIC-NH2 (linker 7-11 via Pyridine(2,6-diCH2)) [Ac-Asp-Trp-5Clw-Oxa-Glu-leu-[Cys(2Lut)-Thp-Leu-Ile-Cys]-NH2]

pIC50: > 8 pic50
Binder: Ac-DW[Phe(3,4-Cl2)][Hyp]E[dL]C[Thp]LIC-NH2 (linker 7-11 via 2Lut″) [Ac-Asp-Trp-Eaa-Hyp-Glu-leu-[Cys(2Lut)-Thp-Leu-Ile-Cys]-NH2]
